Results as given in US20240228559A1, “REDOX SENSITIVE CRALBP MUTANT PROTEINS” (UNIVERSITÄT BERN, priority 2021, published 2024).

Key:
CRALBP = target: T1, CRALBP (Bos taurus, UniProt P10123); conditions: CRALBP isolated from bovine retina; cited from earlier work
T1 construct: CRALBP was isolated from bovine retina; from tissue; host or cells: bovine retina

[1] = Photoisomerization assay of cis-retinal complexes under daylight bulb, UV/Vis; type: physicochemical; conditions: for k, reaction velocity of photoisomerization: oxidized overnight at 4° C. with 5 mM oxidized glutathione, reduced with DTT
Method: Photoisomerization assays of cis-retinal and its complexes with wild-type CRALBP or with di-cysteine mutant A212C:T250C of CRALBP were performed essentially as described by Saari et al. (Saari J C and Bredberg D L, ([…]), J Biol Chem. 262(16):7618-22). For this, the gel permeation chromatography purified ligand complexes were diluted to 26 μM in (GFC) buffer (10 mM Hepes, 100 mM NaCl, pH 7.5) and equimolar amounts of BSA were added to avoid protein precipitation through the light induced formation of free all-trans-retinal. […] Simultaneously UV/Vis absorption spectra were collected every 180 seconds for 3600 sec in total using the Evolution array UV/Vis spectrophotometer (Thermo Scientific). For photoisomerization experiments of the oxidized mutant A212C: T250C or the wild-type CRALBP, 5 mM oxidized glutathione was added to the preformed complexes and the mixtures were kept overnight at 4° C. For repeated reduction, the oxidized glutathion was first removed from the samples using a Vivaspin 15R Hydrosart (Sartorius) by three times concentrating the samples to a tenth of the volume and subsequent redilution in buffer (10 mM Hepes, 100 mM NaCl, pH 7.5) to the original volume. The washed samples were then reduced by adding 5 mM DTT and kept at 4° C. for 1 hour. […] Thus, the introduction of the A212C:T250C double mutation represents an engineered redox-sensitive on-off switch into human CRALBP allowing for a reversible turning on and off of CRALBP's mobile gate functionality. The two mutations are located at adjacent positions in the mobile gate's interface of CRALBP allowing for the formation of an intramolecular disulfide bond under oxidizing conditions and to regain the gate's native functionality under reducing conditions.

[2] = both in complex with 11-cis-retinal; estimated from first order rate constants and extinction coefficients; cited from earlier work
[3] = Dynamic light scattering of GFC complex fractions; type: physicochemical; conditions: DLS, 25° C., H2O; ± SD
Method: The same fractions derived from the preparative GFC that were characterized by analytical GFC, were also analyzed by dynamic light scattering (DLS) on a Malvern Zetasizer S®. Each DLS experiment contains was performed following the settings compiled in Table 5, the run duration and number of runs per measurement was set according to the auto-optimization of the Malvern Zetasizer software.

T1 sequence (P10123 whole entry): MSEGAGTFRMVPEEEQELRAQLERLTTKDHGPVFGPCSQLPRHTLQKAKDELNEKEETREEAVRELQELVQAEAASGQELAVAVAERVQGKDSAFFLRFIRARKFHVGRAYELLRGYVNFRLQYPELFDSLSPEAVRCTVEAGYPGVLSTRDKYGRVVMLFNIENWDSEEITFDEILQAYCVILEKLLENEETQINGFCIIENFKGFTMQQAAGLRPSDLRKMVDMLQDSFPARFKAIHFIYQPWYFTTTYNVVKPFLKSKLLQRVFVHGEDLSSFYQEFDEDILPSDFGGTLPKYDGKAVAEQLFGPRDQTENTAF

CC1=C(/C=C/C(C)=C\C=C\C(C)=C\C=O)C(C)(C)CCC1 [9-cis-retinal]
Kd (CRALBP): 53 nM

CC1=C(/C=C/C(C)=C/C=C/C(C)=C/C=O)C(C)(C)CCC1 [11-cis-retinal]
Kd (CRALBP): 20 nM

CC1=C(/C=C/C(C)=C/C=C\C(C)=C\CO)C(C)(C)CCC1 [11-cis-retinol]
Kd (CRALBP): 60 nM

CC1=C(/C=C/C(C)=C/C=C/C(C)=C/C=O)C(C)(C)CCC1 [13-cis]
binding to CRALBP (CRALBP): does not bind

A212C:T250C: human CRALBP mutein with alanine 212 and threonine 250 replaced by cysteines, SEQ ID NO:9
increase of photostability (half-life t1/2), oxidized versus reduced redox state ([1]; FIG. 8, complex with cis-retinal, 1000 lux): 20 fold
slowing down of the rate of photoisomerization ([1]; oxidized state, FIG. 9, 380 lux, room temperature): at least 10 fold
behaviour in photoisomerization assay after repeat reduction ([1]; repeat reduction of the oxidized sample in 5 mM DTT): re-established wild-type like behavior

CRALBP: CRALBP isolated from bovine retina, in complex with 11-cis-retinal
expected photoisomerization in CRALBP compared to rhodopsin [2]: 4%

HMW: high molecular weight oligomeric complex fraction of A212C:T250C CRALBP with 9-cis-retinal
average size distribution in diameter [3]: 13.50±0.47 nm

SHMW: super high molecular weight oligomeric complex fraction of A212C:T250C CRALBP with 9-cis-retinal
average size distribution in diameter [3]: 28.28±2.13 nm

dimeric complex: dimeric GFC fraction of A212C:T250C CRALBP loaded with 9-cis-retinal
average size distribution in diameter [3]: 8.72±2.41 nm

monomeric complex of di-cysteine A212C:T250C CRALBP with 9-cis-retinal: monomeric GFC fraction of A212C:T250C CRALBP loaded with 9-cis-retinal
average size distribution in diameter [3]: 6.50±1.50 nm

ox. A212C:T250C: 11-cis-retinal: oxidized A212C:T250C mutant in complex with 11-cis-retinal
k, reaction velocity of photoisomerization ([1]; FIG. 9): 6.44e-06 s⁻¹

oxidized A212C:T250C:9-cis-retinal: oxidized A212C:T250C mutant in complex with 9-cis-retinal
photoisomerization detectable ([1]; FIG. 9, oxidized with 5 mM oxidized glutathione): No photoisomerization was detectable

red. A212C:T250C: 11-cis-retinal: reduced A212C:T250C mutant in complex with 11-cis-retinal
k, reaction velocity of photoisomerization ([1]; FIG. 9): 5.988e-05 s⁻¹

wild-type: wild-type CRALBP in complex with cis-retinal, photoisomerization assay [reference compound]
k, reaction velocity of photoisomerization ([1]; FIG. 9): 6.324e-05 s⁻¹
